In paper PMC11885566 one finds stoichiometry N data, which are given here for one substance.

By stoichiometry N is commonly meant the number of molecules, sites or subunits per partner or assembly.

For this assay, the target named is stable soluble Omicron EG.5.1 (6P) S trimer (SARS-CoV-2). The assay is described as follows: cryo-EM structure.

In turn, “stable soluble Omicron EG.5.1 (6P) S trimer (domain or fragment)” showed a stoichiometry N of 3.
